The values below come from patent EP2536430B1.

The target in the experiment is interleukin 3 receptor α (IL-3Rα) chain on human pDCs and basophils (human) (UniProt P26951). The experiment is described as follows: cell-based or functional assay.
UniProt P26951, sequence (P26951 20-378): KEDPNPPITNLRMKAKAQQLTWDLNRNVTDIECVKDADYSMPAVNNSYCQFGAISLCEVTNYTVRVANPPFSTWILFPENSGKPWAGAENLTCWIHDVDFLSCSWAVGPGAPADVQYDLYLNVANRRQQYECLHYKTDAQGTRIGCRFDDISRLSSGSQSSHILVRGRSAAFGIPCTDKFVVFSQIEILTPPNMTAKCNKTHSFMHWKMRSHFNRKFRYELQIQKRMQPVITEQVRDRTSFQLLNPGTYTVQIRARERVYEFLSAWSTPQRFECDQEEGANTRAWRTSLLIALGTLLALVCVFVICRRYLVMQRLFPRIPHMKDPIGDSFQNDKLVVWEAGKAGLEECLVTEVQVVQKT

“ch7G3 (chimeric version of 7G3 with a human IgG1 constant domain) (antibody)” came in with a pDCs (% of total cells remaining in culture), 4h, 10 µg/ml antibody on human PBMC (% of total cells remaining in culture) of 0.1; a pDCs (% of total cells remaining in culture), 24h, 10 µg/ml antibody on human PBMC (% of total cells remaining in culture) of 0.02; a pDCs (% of total cells remaining in culture), 48h, 10 µg/ml antibody on human PBMC (% of total cells remaining in culture) of 0.005.
